The values that follow come from patent publication US20230051872A1, “Multivalent D-Peptidic Compounds for Target Proteins” (Reflexion Pharmaceuticals, Inc., priority 2019, published 2023).

A short description of data set [1]: Subcutaneous immunization, ELISA for antigen-specific serum IgG (anti-drug antibodies). In kind it is in vivo, BALB/c mice. Particulars: repeated subcutaneous immunization with adjuvant, Days 0, 21, 35; serum to Day 42. As to the method:
Adjuvant was purchased from TiterMax. […] All the procedures related to animal handling, care and treatment in the study were performed according to the guidelines set forth in an ACUP protocol for polyclonal antisera production in mice, approved by the Institutional Animal Care and Use Committee (IACUC) of Josman LLC.
(In general: ELISA stands for enzyme-linked immunosorbent assay.)

For the next data set, the target named is PD-1/PD-L1 complex (Homo sapiens, UniProt Q9NZQ7). Particulars: in vitro, reference 31; read-out: IC50, dissociation of PD-1/PD-L1 complex; cited from earlier work.
PD-1/PD-L1 complex, sequence (Q9NZQ7 19-238 limits assumed, one chain of several): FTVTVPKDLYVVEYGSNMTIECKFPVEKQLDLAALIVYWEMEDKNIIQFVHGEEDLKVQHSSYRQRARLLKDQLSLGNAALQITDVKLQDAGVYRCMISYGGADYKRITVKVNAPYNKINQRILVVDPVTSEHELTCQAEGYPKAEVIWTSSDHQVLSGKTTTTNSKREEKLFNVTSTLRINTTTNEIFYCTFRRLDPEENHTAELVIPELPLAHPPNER
In data set [2] the target is Human PD-1-Fc (R&D Systems cat #1086-PD-050), biotinylated (human) (UniProt Q15116). Kind of data set: SPR (Table 2).
Human PD-1-Fc (R&D Systems cat #1086-PD-050), biotinylated (human), sequence (Q15116 25-167 limits assumed): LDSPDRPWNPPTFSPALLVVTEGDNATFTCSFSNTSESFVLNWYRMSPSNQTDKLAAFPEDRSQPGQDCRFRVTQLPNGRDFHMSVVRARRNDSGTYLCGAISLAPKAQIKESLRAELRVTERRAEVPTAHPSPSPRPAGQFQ
The target is the same in data set [3]. Kind of data set: SPR, D-peptidic compound on natural L-PD-1 (Example 1). A general note: Surface plasmon resonance follows binding to a sensor surface in real time, without labels.

As for nivolumab, in data set [1], the “anti-drug antibody response (antigen-specific serum IgG)” value was “strong serum IgG titers”.

With `C[C@@H](O)[C@H](NC(=O)N[C@@H](CC(N)=O)c1nc([C@H](N)CO)no1)C(=O)O` [CA-170], the IC50 on PD-1/PD-L1 complex is 5000 to 10000 µM.

B1: RFX-977296 (designed binder)
chain: TIDQWLLKNAKEDAIAELKKAGITSDLYFNWINVAGSVSSVNFHKNYILKAHA
modifications: D-protein
Broadly, the Kd is the free concentration of one partner at which half of the binding sites on the other are occupied at equilibrium, for simple one-to-one binding. Read a high Kd as weaker binding. Regarding B1, the dissociation constant (Kd) turned out to be 1.51 µM in data set [2] and 0.625 µM in data set [3].

B2: 977978 (designed binder)
chain: TIDQWLLKNAKEDAIAELKKAGITCDLYFNWINVAGSVSSVNFHKNYILKAHA
modifications: not fully specified; D-protein
B2 showed a dissociation constant (Kd) in data set [2] of 0.114 µM. This lies in the sub-micromolar range.
